Laboratory results reported in paper PMC4823717.
Numbering of substitutions follows the chain as printed. In names and notes the source's numbering stands.

B1: His6-σ32 T52pBPA, P0AGB3 K51E (protein)
chain: MTDKMQSLALAPVGNLDSYIRAANAWPMLSADEERALAEKLHYHGDLEAAE
B2: His6-σ32 T52pBPA, P0AGB3 A50D (protein)
chain: B1 chain with A50D, E51K

Molecular target: T1, Ffh (the protein subunit of signal recognition particle, SRP), wild type, P0AGD7
T1 chain: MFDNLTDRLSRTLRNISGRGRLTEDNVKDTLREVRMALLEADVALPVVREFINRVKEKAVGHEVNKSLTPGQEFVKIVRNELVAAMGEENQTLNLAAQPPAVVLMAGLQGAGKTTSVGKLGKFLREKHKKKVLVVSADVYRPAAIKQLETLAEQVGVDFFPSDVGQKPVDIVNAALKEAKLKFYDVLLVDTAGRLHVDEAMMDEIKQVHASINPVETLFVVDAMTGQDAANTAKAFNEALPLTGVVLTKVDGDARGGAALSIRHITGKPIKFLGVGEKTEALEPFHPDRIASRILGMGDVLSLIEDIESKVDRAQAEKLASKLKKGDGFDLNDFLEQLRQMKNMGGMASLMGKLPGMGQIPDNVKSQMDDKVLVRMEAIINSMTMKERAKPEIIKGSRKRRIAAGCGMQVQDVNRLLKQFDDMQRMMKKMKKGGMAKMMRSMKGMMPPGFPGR
Assay: in vivo photo-cross-linking ([35S]Met pulse-labeling, immunoprecipitation, SDS-PAGE, phosphorimaging)
Conditions: chain shown with the change; 30 °C, M9-based medium with 1 mM pBPA, 1 mM IPTG for 6 min, [35S]Met for 1 min, UV irradiation; parent: 100; read off a plot

Molecule	percent of parent (parent (no dysregulation mutation) = 100)
MTDKMQSLALAPVGNLDSYIRAANAWPMLSADEERALAEKLHYHGDLEAD [His6-σ32 K51pBPA, P0AGB3 A50D]	7.6
B1	95
B2	36

What follows are molecules tested against Ffh (the protein subunit of signal recognition particle, SRP), wild type (UniProt P0AGD7) in the same assay as above. Conditions: 30 °C, M9-based medium with 1 mM pBPA, 1 mM IPTG for 6 min, [35S]Met for 1 min, UV irradiation; parent: 100; read off a plot.

Molecule	percent of parent (parent (no dysregulation mutation) = 100)
His6-σ32 T52pBPA (from UniProt P0AGB3) I54N	43
His6-σ32 K51pBPA (from UniProt P0AGB3) R91P	78
His6-σ32 K51pBPA (from UniProt P0AGB3) I54N	53
His6-σ32 T52pBPA (from UniProt P0AGB3) R91P	76
